The values that follow are results of earlier work, collected in article PMC10349181.

The target in this data set is Amyloid beta (Homo sapiens) (UniProt P05067).
Amyloid beta (Homo sapiens), sequence (P05067 672-711): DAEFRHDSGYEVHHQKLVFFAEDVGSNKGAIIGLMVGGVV

VEGF-A, sequence (P15692 whole entry): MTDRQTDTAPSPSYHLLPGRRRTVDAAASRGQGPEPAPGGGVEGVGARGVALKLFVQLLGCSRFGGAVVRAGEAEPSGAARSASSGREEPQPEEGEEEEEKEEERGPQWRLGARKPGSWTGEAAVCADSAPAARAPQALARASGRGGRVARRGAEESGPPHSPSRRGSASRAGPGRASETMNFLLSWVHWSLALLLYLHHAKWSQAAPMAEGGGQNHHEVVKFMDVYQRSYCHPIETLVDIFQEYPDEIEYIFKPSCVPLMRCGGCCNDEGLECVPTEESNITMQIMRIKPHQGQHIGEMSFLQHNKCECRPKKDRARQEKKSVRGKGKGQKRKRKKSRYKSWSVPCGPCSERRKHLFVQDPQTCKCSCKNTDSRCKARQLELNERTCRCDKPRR

As a reminder, the Kd is the equilibrium constant for the complex coming apart. For VEGF-A (from UniProt P15692), the dissociation constant Kd is 0.05 nM.
